From paper PMC6085627, “Exploring the biological functional mechanism of the HMGB1/TLR4/MD-2 complex by surface plasmon resonance” (Molecular Medicine, 2018)
Substitutions are numbered along the chain they refer to.

B1: disulfide HMGB1 (High Mobility Group Box 1) (natural protein, UniProt P63159 1-215, looked up)
chain: MGKGDPKKPRGKMSSYAFFVQTCREEHKKKHPDASVNFSEFSKKCSERWKTMSAKEKGKFEDMAKADKARYEREMKTYIPPKGETKKKFKDPNAPKRPPSAFFLFCSEYRPKIKGEHPGLSIGDVAKKLGEMWNNTAADDKQPYEKKAAKLKEKYEKDIAAYRAKGKPDAAKKGVVKAEKSKKKKEEEDDEEDEEDEEEEEEEEDEDEEEDDDDE
modifications: disulfide bond between C23 and C45
notes: High Mobility Group Box 1 (HMGB1), single 215-amino acid polypeptide; neither is stated here; also called disulfide HMGB1 isoform; intact HMGB1; source: E. coli, purified to homogeneity
B2: non-oxidizable HMGB1 3S mutant (natural protein, UniProt P63159 1-215, looked up)
chain: B1 chain with C23S, C45S, C106S
notes: HMGB1 in which all three cysteines (C23, C45, C106) are replaced by serines; Commercial protein; also called 3S mutant HMGB1; source: provided by HMGBiotech (Milan, Italy)
B3: DTT reduced HMGB1 (natural protein, UniProt P63159 1-215, looked up)
chain: B1 chain
modifications: cysteines reduced with DTT (no C23-C45 disulfide)
notes: High Mobility Group Box 1 (HMGB1), 215 amino acids, reduced form; Prepared as in Yang et al. 2012 (cited); Same protein as m1 in another redox state; source: E. coli, purified to homogeneity, then reduced with DTT

Tests used:
Human TLR4/MD-2 complex = target: T1, Human TLR4/MD-2 complex (human, UniProt O00206 24-631; Q9Y6Y9 19-160); test: SPR; Biacore T200; TLR4/MD-2 amine-coupled on CM5 (~1200 RU); HMGB1 isoforms injected at 30 μL/min for 60 s, 25 °C, dissociation 1 min; HBS-EP pH 7.4 (10 mM hepes, 150 mM NaCl, 3 mM EDTA, 0.05% P20); 1:1 binding supposed; apparent KD; conditions: both partners purified
T1 construct: Toll-like receptor 4 (TLR4), human, chain of the bought TLR4/MD-2 complex; Myeloid Differentiation factor 2 (MD-2), human, chain of the bought TLR4/MD-2 complex; No catalogue number printed; also called TLR4/MD-2 receptor; source: bought: R&D Systems
T1 sequence (O00206 24-631, chain 1 of 2): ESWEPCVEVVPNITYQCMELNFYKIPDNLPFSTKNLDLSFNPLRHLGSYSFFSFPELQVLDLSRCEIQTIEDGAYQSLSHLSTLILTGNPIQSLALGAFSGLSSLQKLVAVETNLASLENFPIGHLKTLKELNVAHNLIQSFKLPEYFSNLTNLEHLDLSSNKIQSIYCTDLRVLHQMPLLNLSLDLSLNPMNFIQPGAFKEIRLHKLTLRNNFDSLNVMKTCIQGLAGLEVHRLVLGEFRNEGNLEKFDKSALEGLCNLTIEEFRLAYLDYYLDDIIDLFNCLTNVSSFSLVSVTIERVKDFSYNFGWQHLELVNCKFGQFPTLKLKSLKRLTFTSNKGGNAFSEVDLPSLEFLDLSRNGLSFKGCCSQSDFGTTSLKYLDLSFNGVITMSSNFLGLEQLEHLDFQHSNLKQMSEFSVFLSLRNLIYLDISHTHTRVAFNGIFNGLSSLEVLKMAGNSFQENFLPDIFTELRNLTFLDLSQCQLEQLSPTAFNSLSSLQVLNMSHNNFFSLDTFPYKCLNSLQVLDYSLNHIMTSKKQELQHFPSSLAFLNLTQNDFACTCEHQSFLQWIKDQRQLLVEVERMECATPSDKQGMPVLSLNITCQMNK
T1 sequence (Q9Y6Y9 19-160, chain 2 of 2): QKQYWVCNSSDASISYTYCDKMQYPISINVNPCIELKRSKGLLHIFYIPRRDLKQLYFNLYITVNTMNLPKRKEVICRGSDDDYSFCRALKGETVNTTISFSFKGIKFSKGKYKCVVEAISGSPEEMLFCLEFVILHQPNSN

human TLR4 = target: T2, human TLR4 (human, UniProt O00206 24-631); test: SPR; Biacore T200; rhTLR4 amine-coupled on CM5 (~800 RU); HMGB1 isoforms injected at 30 μL/min for 60 s, 25 °C, dissociation 1-2 min; HBS-EP pH 7.4; 1:1 binding supposed; apparent KD; conditions: both partners purified
T2 construct: Toll-like receptor 4 (TLR4), recombinant human (rhTLR4); No catalogue number printed; also called rhTLR4; Toll-like receptor 4; source: bought: R&D Systems
T2 sequence (O00206 24-631): as the sequence (O00206 24-631, chain 1 of 2) above

Binder | Kd (Human TLR4/MD-2 complex) [µM] | fold faster association rate than the other isoforms (Human TLR4/MD-2 complex) [fold] | kon (Human TLR4/MD-2 complex) [M⁻¹ s⁻¹] | Kd (human TLR4) [µM]
B1 | 0.42 ± 0.01 | 10 | 286000 | –
B2 | 3.02 ± 0.02 | – | – | 4.2 ± 0.09
B3 | 3.93 ± 0.01 | – | – | –
